These are literature values, as cited in article PMC12537681.

Usually Kd stands for the equilibrium constant for the complex coming apart.

The target in the series is Spike glycoprotein trimer (Severe acute respiratory syndrome coronavirus 2) (UniProt P0DTC2).

For the substance TLR4 (from UniProt O00206), the Kd was 300 nM.
